We go through 36 sequences from the supplement of paper PMC12764529.

Series [1] can be described thus: folding stability dG unfold from trypsin proteolysis; higher = more stable. In a few lines:
(§1)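 Only designs with AlphaFold2 dimer inter-PAE above 15 were retained; each was a mini-protein under 80 residues with no cysteine, in a PA-tagged cDNA display construct. After digestion with trypsin and chymotrypsin and sequencing, K50 was inferred by Bayesian fitting of counts, and unfolding free energy was derived per protease or combined against a sequence-predicted unfolded-state K50 and a shared folded-state K50.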

The nature of series [2]: folding stability dG unfold from chymotrypsin proteolysis; higher = more stable. The procedure, abridged:
as §1

The nature of series [3]: folding stability dG unfold (combined trypsin and chymotrypsin); higher = more stable. In a few lines: as §1

± gives the half width of the 95% confidence interval.

For “SAGTIIIPMKEIREELGYPPGSPPSQMRDRIRDLIRRLYPRGIRPTDIDIESNGDNWYITVDIKLPPGASAG [r14_158_TrROS]”, the “folding stability dG unfold” value was found to be 2.26 ± 0.058 kcal/mol in series [1], 2.76 ± 0.053 kcal/mol in series [2] and 2.63 ± 0.11 kcal/mol in series [3].
On to “SAGTIKEIAETIAEFMRQNGMNIKVKLTEVDPNDPNYVKVRVEIEMWYYKKNGKPLGPMRHTMTIVIRSAGG [r19_418_TrROS]”, for which the “folding stability dG unfold” value in series [1] came to 2.84 ± 0.11 kcal/mol; in series [2], 3.42 ± 0.13 kcal/mol; in series [3] it was 2.92 ± 0.29 kcal/mol.
As to “SAGTIRIVVPAEELSDEEIEALAEELRKLFPNAKIVRVERRVETLPDGRKRTYVVLEIHIELPPPPEEESAG [r5_835_TrROS_Hall]”, the “folding stability dG unfold” value is 4 ± 0.13 kcal/mol in series [1], 4.33 ± 0.12 kcal/mol in series [2] and 4.26 ± 0.14 kcal/mol in series [3].
Turning to “SAGTLEEALEDPSNETVEIEIEIPTGEYPLSDPEKVEELAEEKKKEIEKKLKEKGKNVKIIFKVSLKPLSAG [r5_408_JUSTAS]”, the “folding stability dG unfold” value was 0.366 ± 0.07 kcal/mol in series [1], 0.213 ± 0.15 kcal/mol in series [2] and 0.447 ± 0.16 kcal/mol in series [3].
With “SAGTPEEVLQRAKELANRFQDRARDNGMDVKVDITQVEPNRIRINIEMRPPNGRRHRMPIEIELPKDDISAG [r5_994_TrROS]”, the “folding stability dG unfold” value was 1.27 ± 0.079 kcal/mol in series [1], 1.65 ± 0.036 kcal/mol in series [2] and 1.43 ± 0.2 kcal/mol in series [3].
With “SAGTTSVVSTETTEFPDGTVTTTTTVLYLEPEGDGYVKVSETRVTTTYTIDPATGTVVTSTTTTTPLAGSAG [r5_828_JUSTAS]”, the “folding stability dG unfold” value in series [1] turned out to be 1.79 ± 0.063 kcal/mol; in series [2], 2.17 ± 0.063 kcal/mol; in series [3], 1.99 ± 0.098 kcal/mol.
For the sequence “SAGTTVTLTDPVTGNVTTITKDPTDPNLWTVTLPDGSSVTAKRSEIAKKLGLSPEKLLSDYPVPSVSLTSAG [r5_156_JUSTAS]”, the “folding stability dG unfold” value was 1.94 ± 0.031 kcal/mol in series [1], 1.88 ± 0.024 kcal/mol in series [2] and 1.94 ± 0.038 kcal/mol in series [3].
As to “SAGTVKVSEDGDKLTVTMTAPPESPALVEALIQALKDAGLTIVTAEITTEPGEGDLVRTTITLTLKPPASAG [r5_739_JUSTAS]”, the “folding stability dG unfold” value came out at 2.33 ± 0.082 kcal/mol in series [1], 2.545 ± 0.024 kcal/mol in series [2] and 2.46 ± 0.06 kcal/mol in series [3].
With “SAGVEIKTDPSKPVITITINYTSIEEAKEYIEKLVKEIGAKEVKIKEDPNSNKITATIDLKDIKKIEKLSAG [r5_598_JUSTAS]”, the results for the “folding stability dG unfold” value in series [1], in series [2] and in series [3] were -0.144 ± 0.52 kcal/mol, 1.46 ± 0.19 kcal/mol and 1.09 ± 0.41 kcal/mol, respectively.
As for “SAGVIPESLIEKVETEEYPGGITRSTYTYPDGVTVTVEETKVPGTDGITRKITVYPPTNTTTETTVTDPSAG [r5_802_JUSTAS]”, the figures for the “folding stability dG unfold” value in series [1], in series [2] and in series [3] were 0.29 ± 0.098 kcal/mol, 0.348 ± 0.16 kcal/mol and 0.44 ± 0.12 kcal/mol, respectively.
“SAGVKELAEEIADEFQKPGWQVEVEVDPGDGTITVQMRMPDYQYEIEIKITPENGKPQVDIKWRPPNDSAGG [r19_2_TrROS]”: the entries for the “folding stability dG unfold” value in series [1], in series [2] and in series [3] were 1.51 ± 0.16 kcal/mol, 1.49 ± 0.11 kcal/mol and 1.56 ± 0.31 kcal/mol, respectively.
For “SAGVPLSSVPESEVAEEVEFPKHGLKLLRDTATGKWYLQEGDTATVIPPEEAAKLLAEIKAPKPSPELLSAG [r14_516_JUSTAS]”, in that order: 1.33 ± 0.073 kcal/mol, 1.01 ± 0.083 kcal/mol and 1.2 ± 0.082 kcal/mol.
Regarding “SAGVTITTNPESGTVTITIPFPDGSSATIELNYGGSLPTKPSITSFKVNPYDNGKPIIPADELVKKILSSAG [r5_842_TrMRF]”, the “folding stability dG unfold” value in series [1] stood at 0.96 ± 0.056 kcal/mol; in series [2], 1.57 ± 0.13 kcal/mol; in series [3], 1.39 ± 0.35 kcal/mol.
As to “SAGWFVRIEIEPPGEKREIMIPFSWDEARELLKDLGLEVEVDPESPTFEFKLPNYQIKVEFMPIPPGQMSAG [r5_248_TrROS]”, the “folding stability dG unfold” value came to 2.34 ± 0.12 kcal/mol in series [1], 3.6 ± 0.049 kcal/mol in series [2] and 3.21 ± 0.12 kcal/mol in series [3].
“SAGWHEIEIEIMIPFPKENAEELAKEIAEEIARMHGFKITNIEVQVYPTDGEYYVMIPVKIRIPPPNDTSAG [r14_219_TrROS]”: the “folding stability dG unfold” value in series [1] was found to be 2.81 ± 0.061 kcal/mol; in series [2], 3.15 ± 0.056 kcal/mol; in series [3], 3.05 ± 0.11 kcal/mol.
Consider “SAGWRMTIWVQYELPPGMPPERAKEAVRDIIRDIMRRFGLPMPPGMKIDIEPVEPSNDYVYYKVTIEFPSAG [r14_735_TrROS]”, for which the “folding stability dG unfold” value in series [1] stood at 4.37 ± 0.26 kcal/mol; in series [2] it was 5.52 ± 0.15 kcal/mol; in series [3] it was 5.22 ± 0.33 kcal/mol.
In the case of “SAGYEIVKEIAEELGFPVEIDRIEYDPDHGTIKFTARMRPKDGKKYRVQIMIHVPPENGNVDIELEYVPSAG [r5_929_TrROS]”, the “folding stability dG unfold” value in series [1] stood at 2.09 ± 0.074 kcal/mol; in series [2], 2.6 ± 0.16 kcal/mol; in series [3], 2.56 ± 0.2 kcal/mol.
For “SAGYFIMVKFEFPDGGPQEFMIWIPPDENPEKLTKEEAKEVAKSIANSNQDQGGFEVKDVEIMPPDDMSAGG [r19_27_TrROS]”, the “folding stability dG unfold” value in series [1] came to 0.611 ± 0.1 kcal/mol; in series [2] it was 2.03 ± 0.088 kcal/mol; in series [3] it was 1.58 ± 0.15 kcal/mol.
On to “SAGYIRIEKDNDYYKIEFLFPPNDPSLIENLVEAIRQKGWKVKDVEVEVEPNKDGMYRVEIDFKIKPPDSAG [r5_739_TrROS]”, for which the “folding stability dG unfold” value in series [1] came out at 2.53 ± 0.12 kcal/mol; in series [2] it was 3.31 ± 0.099 kcal/mol; in series [3], 2.88 ± 0.17 kcal/mol.
On to “SAGYVEPYEDGMVKIDSTFFLNDWVFKVDWWIMPNGNIMISIEPIEPIPPPPPVPIDADDPEQKEEAQQSAG [r5_715_TrROS]”, for which the “folding stability dG unfold” value in series [1] is 1.69 ± 0.18 kcal/mol; in series [2] it was 2.69 ± 0.069 kcal/mol; in series [3] it was 2.41 ± 0.23 kcal/mol.
As to “SAIKGMPLEELAKHIENEMRKMHPNVKIKVEIVDVPPDYLVIEVEITVRHPNPGGQQVEFPMTIVIDLDSAG [r14_187_TrROS]”, the results for the “folding stability dG unfold” value in series [1], in series [2] and in series [3] were 1.81 ± 0.21 kcal/mol, 1.5 ± 0.17 kcal/mol and 1.81 ± 0.21 kcal/mol, respectively.
Turning to “SAISPTERVEATDYKSPNGAVGSTTTFPDPEGSTVSIVREGSTWRLVTVNPDGSVSEREVSPEEAAALLASA [r9_1144_JUSTAS]”, the “folding stability dG unfold” value amounted to 1.89 ± 0.04 kcal/mol in series [1], 1.71 ± 0.065 kcal/mol in series [2] and 1.86 ± 0.067 kcal/mol in series [3].
With “SAKASELLKKLPFEAEIEEGEEFVKIKLKNPFLKNPNVTFEFEIPTKKGKPIKVKVTLTKNGAEKIEPSSAG [r14_401_TrMRF]”, the entries for the “folding stability dG unfold” value in series [1], in series [2] and in series [3] were 2.57 ± 0.14 kcal/mol, 2.18 ± 0.078 kcal/mol and 2.25 ± 0.34 kcal/mol, respectively.
For “SAKDIEIEMERTNGYYQMTIKLPGKGYEISVWMPGDQYEISVQPPKNPDEVETIPFTVPEIKDALIDALSAG [r14_716_TrROS]”, in that order: 0.519 ± 0.12 kcal/mol, 1.26 ± 0.16 kcal/mol and 1.18 ± 0.3 kcal/mol.
For “SAKEEEKKKKKEKKKPKPKTVEITVYINGKKIKKIKFNKKTKKITITLENGKKITIPPGMSLEEILKKLSAG [r14_59_TrROS_Hall]”, in that order: 2.16 ± 0.16 kcal/mol, 3.37 ± 0.1 kcal/mol and 2.88 ± 0.24 kcal/mol.
Take “SAKIKVEIVEIDEKTGTIKIKAEIELPDGTKIELEATIKIEPVEVEKKEVTDKNGKKITVTKIKIKLPEKSA [r9_610_TrROS_Hall]”: the “folding stability dG unfold” value amounted to 2.05 ± 0.5 kcal/mol in series [1], 2.52 ± 0.24 kcal/mol in series [2] and 2.59 ± 0.71 kcal/mol in series [3].
For the sequence “SAKITKIEINEDGTLTITIEVELPEGMEADELVIFVEVDGKIYEATIKKDGTVEIKLKNIKDLKIYIFKKSA [r9_722_TrROS_Hall]”, the “folding stability dG unfold” value in series [1] amounted to 3.87 ± 0.28 kcal/mol; in series [2] it was 5.04 ± 0.12 kcal/mol; in series [3], 4.95 ± 0.16 kcal/mol.
“SAKKKKPLPKIKKIKITITLKDGTKIEMEITKVEVLEDGTVKIKMKMKVIDKKTKKKYEFEIEIIIKLKSAG [r14_591_TrROS_Hall]”: the “folding stability dG unfold” value in series [1] is 2.96 ± 0.27 kcal/mol; in series [2], 3.28 ± 0.17 kcal/mol; in series [3], 3.27 ± 0.21 kcal/mol.
With “SAKKKVVELEIEIEVPPEDLTEEELKEKVLEALRKLFPDLKIKKIEIEVRVERKEDGSLKVTVKIKIEPSAG [r14_145_TrROS_Hall]”, the “folding stability dG unfold” value in series [1] was determined as 3.03 ± 0.13 kcal/mol; in series [2], 2.01 ± 0.14 kcal/mol; in series [3], 2.65 ± 0.28 kcal/mol.
As for “SAKKKVVVEIEIPKEDMSKEEVKEALREAAKELGLELPEEEIEKLVEEARKKGLSIEEVLRKLKEEGLLSAG [r14_364_TrROS_Hall]”, the figures for the “folding stability dG unfold” value in series [1], in series [2] and in series [3] were 0.693 ± 0.056 kcal/mol, 1.47 ± 0.054 kcal/mol and 1.12 ± 0.12 kcal/mol, respectively.
For “SAKKLDIKVDGIQRPENNVMILIRIDPGLPPEKDVTITIKGKNGHKQEIPYENDHIYIMVPAQDITIKISAG [r14_350_TrROS]”, in that order: 1.8 ± 0.077 kcal/mol, 2.68 ± 0.045 kcal/mol and 2.25 ± 0.34 kcal/mol.
As for “SAKKVKPIAKLTITDENGNTYEITVTVKEVDGKLVVEAEVYNKDGELVARVTAVFDNGKLVAVSIELLPSAG [r14_828_TrROS_Hall]”, the entries for the “folding stability dG unfold” value in series [1], in series [2] and in series [3] were 2.11 ± 0.13 kcal/mol, 3.03 ± 0.072 kcal/mol and 2.8 ± 0.17 kcal/mol, respectively.
On to “SAKMKLPEGAKPIAEKDGITIVEVPNKVIIRVRLPDGKEVTLTFPKSDLEEIEALIRELKDAGIEEIEFSAG [r14_12_TrROS_Hall]”, for which the “folding stability dG unfold” value in series [1] stood at 0.876 ± 0.024 kcal/mol; in series [2], 0.762 ± 0.12 kcal/mol; in series [3], 0.815 ± 0.07 kcal/mol.
As to “SAKMTAEELAKKLAEELAKKLGVKVKVEVEVKVEEKDGKLVIEVKIKVYNENGELIEEIKIEIVLPKEESAG [r14_708_TrROS_Hall]”, the “folding stability dG unfold” value in series [1] stood at 2.92 ± 0.35 kcal/mol; in series [2] it was 3.84 ± 0.26 kcal/mol; in series [3], 3.51 ± 0.28 kcal/mol.
As to “SAKPKVIAEITIYNKETGKVVRITLTDEALEEAKKKGLKEVKLTVEIEVVNPDGSKKTFKMEITLKVEDSAG [r14_100_TrROS_Hall]”, the “folding stability dG unfold” value in series [1] came out at 2.77 ± 0.26 kcal/mol; in series [2], 4.08 ± 0.17 kcal/mol; in series [3], 3.96 ± 0.26 kcal/mol.
For the sequence “SAKPPVIVIRIEKKEDGTYRVTIEVDGKEIEIEVPEGTSLEEILKKLAEELGVEVEVVEVKDGYLVIKPSAG [r14_404_TrROS_Hall]”, the results for the “folding stability dG unfold” value in series [1], in series [2] and in series [3] were 2.82 ± 0.2 kcal/mol, 2.88 ± 0.092 kcal/mol and 2.84 ± 0.26 kcal/mol, respectively.
